From patent US20050214813A1

B1: PSEC0220 (supernatant containing the product expressed from the clone of SEQ ID NO. 5) (protein)
chain: LWWAVGSPLVMDPTSICRKARRLAGRQAELCQAEPEVVAELARGARLGVRECQFQFRFRRWNCSSHSKAFGRILQQDIRETAFVFAITAAGASHAVTQACSMGELLQCGCQAPRWRAPPRPSGLPGTPGPPGPAGSPEGSAAWEWGGCGDDVDFGDEKSRLFMDARHKRGRGDIRALVQLHNNEAGRLAVRSHTRTECKCHGLSGSCALRTCWQKLPPFREVGARLLERFHGASRVMGTNDGKALLPAVRTLKPPGRADLLYAADSPDFCAPNRRTGSPGTRGRACNSSAPDLSGCDLLCCGRGHRQESVQLEENCLCRFHWCCVVQCHRCRVRKELSLCL
B2: PSEC0256 (supernatant containing the product expressed from the clone of SEQ ID NO. 9) (protein)
chain: MAGHSMVLVEILDVNDNVPEVMVTSLSLPVQEDAQVGTVIALISVSDRDSGANGQVICSLTPHVPFKLVSTYKNYYSLVLDSALDRESVSAYELVVTARDGGSPSLWATARVSVEVADVNDNAPAFAQPEYTVFVKENNPPGCHIFTVSAWDADAQKNALVSYSLVERRVGEHALSSYVSVHAESGKVYALQPLDHEELELLQFQVSARDAGVPPLGSNVTLQVFVLDENDNAPALLATPAGSAGGAVSELVPRSVGAGHVVAKVRAVDADSGYNAWLSYELQPAAVGAHIPFHVGLYTGEISTTRILDEADAPRHRLLVLVKDHGEPALTSTATVLVSLVENGQAPKTSSRASVGAVDPEAALVDINVYLIIAICAVSSLLVLTLLLYTALRCSAPPTVSRCAPGKPTLVCSSAVGSWSYSQQRRQRVCSAESPPKTDLMAFSPSLQLSREDCLNPPSEPRQPNPDWRYSASLRAGMHSSVHLEEAGILRAGPGGPDQQWPTVSSATPEPEAGEVSPPVGAGVNSNSWTFKYGPGNPKQSGPGELPDKFIIPGSPAIISIRQEPTNSQIDKSDFITFGKKEETKKKKKKKKGNKTQEKKEKGNSTTDNSDQ
B3: PSEC0129 (supernatant containing the product expressed from the clone of SEQ ID NO: 3) (protein)
chain: AFHASAVGLRSSDEQKQQPPNSFSQQHSETQGAEKPDPESSHSPPRYTDQGGEEEEDYESEEQLQHRILTAALEFVPAHGWTAEAIAEGAQVCIGEGGAT
B4: PSEC0242 (supernatant containing the product expressed from the clone of SEQ ID NO. 7) (protein)
chain: MMGLGNGRRSMKSPPLVLAALVACIIVLGFNYWIASSRSVDLQTRIMELEGRVRRAAAERGAVELKKNEFQGELEKQREQLDKIQSSHNFQLESVNKLYQDEKAVLVNNITTGERLIRVLQDQLKTLQRNYGRLQQDVLQFQKNQTNLERKFSYDLSQCINQMKEVKEQCEERIEEVTKKGNEAVASRDLSENNDQRQQLQALSEPQPRLQAAGLPHTEVPQGKGNVLGNSKSQTPAPSSEVVLDSKRQVEKEETNEIQVVNEEPQRDRLPQEPGREQVVEDRPVGGRGFGGAGELGQTPQVQAALSVSQENPEMEGPERDQLVIPDGQEEEQEAAGEGRNQQKLRGEDDYNMDENEAESETDKQAALAGNDRNIDVFNVEDQKRDTINLLDQREKRNHTL

Target: Aβ1-28 consisting of 28 amino acid residues from the N-terminus of Aβ (UniProt P05067)
Test: cell-based or functional assay

Chain of Aβ1-28 consisting of 28 amino acid residues from the N-terminus of Aβ (P05067 672-699): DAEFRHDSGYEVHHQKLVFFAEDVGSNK

Binder | Fluorescence Intensity (thioflavin-T, Aβ1-28 aggregation after 24 hours, relative to the Aβ40-1 control taken as 100%) [%]
B1 | 250
B2 | 460
B3 | 24
B4 | 16
